Source: article PMC10904395, “The Deinococcus protease PprI senses DNA damage by directly interacting with single-stranded DNA”

Legend:
DG-PprI (IrrE) [1] = target: T1, DG-PprI (IrrE) (Deinococcus geothermalis, UniProt Q1J1D6 1-289); experiment: EMSA; 1 or 2 uM protein, 0.1 uM DNA; EMSA: 150 mM NaCl, 20 mM Tris-HCl pH 8.0, 0.1 mg/ml BSA, 0.1 uM FAM-labeled nucleic acid, 0/1/2 uM protein, room temperature 30 min, 10% native PAGE in 1x TB; settings: protein: recombinant, tags: tag removed
T1 sequence: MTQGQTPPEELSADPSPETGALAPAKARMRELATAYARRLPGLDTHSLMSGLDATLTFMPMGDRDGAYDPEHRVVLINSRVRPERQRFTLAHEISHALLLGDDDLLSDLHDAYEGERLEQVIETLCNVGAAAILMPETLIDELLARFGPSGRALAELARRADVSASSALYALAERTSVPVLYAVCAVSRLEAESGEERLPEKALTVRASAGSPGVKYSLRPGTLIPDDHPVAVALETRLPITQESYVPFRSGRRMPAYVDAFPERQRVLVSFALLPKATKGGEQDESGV

DG-PprI (IrrE) [2] = target: T1, DG-PprI (IrrE); experiment: EMSA; 1 or 2 uM protein, 0.1 uM RNA; EMSA: 150 mM NaCl, 20 mM Tris-HCl pH 8.0, 0.1 mg/ml BSA, 0.1 uM FAM-labeled nucleic acid, 0/1/2 uM protein, room temperature 30 min, 10% native PAGE in 1x TB; settings: protein: recombinant; tags: tag removed; label: 5' FAM
DG-PprI (IrrE) [3] = target: T1, DG-PprI (IrrE); experiment: X-ray crystallography; Mn2+; 2.2 A; PprI dimer in asymmetric unit; EMSA: 150 mM NaCl, 20 mM Tris-HCl pH 8.0, 0.1 mg/ml BSA, 0.1 uM FAM-labeled nucleic acid, 0/1/2 uM protein, room temperature 30 min, 10% native PAGE in 1x TB; settings: protein: recombinant; tags: tag removed

CGCTCTTCGCCATTCTCTTGAAGTTTCAAACTTGG (ssDNA) [35nt ssDNA]: binds (DG-PprI (IrrE) [1]; label: 5' FAM).

B1: 35 bp dsDNA (dsDNA)
DNA 1: CGCTCTTCGCCATTCTCTTGAAGTTTCAAACTTGG
DNA 2: CCAAGTTTGAAACTTCAAGAGAATGGCGAAGAGCG
B1: no binding (DG-PprI (IrrE) [1]; label: 5' FAM on F strand, blunt).

CGCUCUUCGCCAUUCUCUUGAAGUUUCAAACUUGG (ssRNA) [35nt RNA]: no binding (DG-PprI (IrrE) [2]).

TCATGAGCAGTTTTTTTTTTTTTTTTTTT (ssDNA) [29nt ssDNA (co-crystal)]: binds (DG-PprI (IrrE) [3]).
